Data reported in paper PMC2876729 (The Biochemical journal, 2010).

B1: Recombinant human endostatin produced in HEK 293-EBNA cells (wild type) (domain or fragment, UniProt P39060 1572-1754, looked up)
chain: HSHRDFQPVLHLVALNSPLSGGMRGIRGADFQCFQQARAVGLAGTFRAFLSSRLQDLYSIVRRADRAAVPIVNLKDELLFPSWEALFSGSEGPLKPGARIFSFDGKDVLRHPTWPQKSVWHGSDPNGRRLTESYCETWRTEAPSATGQASSLLGGRLLGQSAASCHHAYIVLCIENSFMTASK
B2: Recombinant human transglutaminase-2 (enzyme, UniProt P21980 1-687, looked up)
chain: MAEELVLERCDLELETNGRDHHTADLCREKLVVRRGQPFWLTLHFEGRNYEASVDSLTFSVVTGPAPSQEAGTKARFPLRDAVEEGDWTATVVDQQDCTLSLQLTTPANAPIGLYRLSLEASTGYQGSSFVLGHFILLFNAWCPADAVYLDSEEERQEYVLTQQGFIYQGSAKFIKNIPWNFGQFEDGILDICLILLDVNPKFLKNAGRDCSRRSSPVYVGRVVSGMVNCNDDQGVLLGRWDNNYGDGVSPMSWIGSVDILRRWKNHGCQRVKYGQCWVFAAVACTVLRCLGIPTRVVTNYNSAHDQNSNLLIEYFRNEFGEIQGDKSEMIWNFHCWVESWMTRPDLQPGYEGWQALDPTPQEKSEGTYCCGPVPVRAIKEGDLSTKYDAPFVFAEVNADVVDWIQQDDGSVHKSINRSLIVGLKISTKSVGRDEREDITHTYKYPEGSSEEREAFTRANHLNKLAEKEETGMAMRIRVGQSMNMGSDFDVFAHITNNTAEEYVCRLLLCARTVSYNGILGPECGTKYLLNLNLEPFSEKSVPLCILYEKYRDCLTESNLIKVRALLVEPVINSYLLAERDLYLENPEIKIRILGEPKQKRKLVAEVSLQNPLPVALEGCTFTVEGAGLTEEQKTVEIPDPVEAGEEVKVRMDLLPLHMGLHKLVVNFESDKLKAVKGFRNVIIGPA

Experiments:
[1] = biological target: NC1(XVIII) domain R27A/R139A double mutant (human); experiment: ELISA
[2] = biological target: Recombinant human endostatin expressed in Pichia pastoris (human) (UniProt P39060); experiment: SPR
[3] = biological target: Recombinant human endostatin produced in HEK 293-EBNA cells (wild type) (human) (UniProt P39060); experiment: SPR
[4] = biological target: B2; experiment: SPR
[5] = biological target: B1; experiment: ELISA

“Recombinant human transglutaminase-2 (from UniProt P21980 1-687) (enzyme)” was tested, and the percent of the binding of the wild type NC1 domain [1] was 31%.

With “Guinea pig TG-2 extracted from liver (enzyme)” the Kd [2] was 5.59 nM, the koff [2] was 0.000341 s⁻¹ and the Kd [3] was 6.8 nM. It also gave a koff [3] of 0.000765 s⁻¹, a kon [3] of 112000 M⁻¹ s⁻¹ and a percent inhibition of binding by 1 mM GTP [3] of 96.7%.

B1: binds [4].

In the case of B2, the “fold increase of binding with 8 mM CaCl2 against no cation” value [5] is reported as roughly 38 fold, the “fold increase of binding with 8 mM MgCl2 against no cation” value [5] is reported as roughly 2 fold and the “fold increase of binding with 8 mM MnCl2 against no cation” value [5] is reported as roughly 10 fold.
